± gives the uncertainty stated by the source.

The record followed here is the supplement of paper PMC7877785.

The nature of the series: self-splicing fitness, log relative to wild type (ln ratio); higher = more splicing; Tetrahymena group I intron in knt gene, E. coli kanamycin selection, DiMSum; sequences stand for … in CUCUCU…GGAGGGAAAAGUUAUCAGGCAUGCACCUGGUAGCUAGUCUUUAAACCAAUAGAUUGCAUCGGUUUAAAAGGCAAGACCGUCAAAUUGCGGGAAAGGGGUCAACAGCCGUUCAGUACCAAGUCUCAGGGGAAACUUUGAGAUGGCCUUGCAAAGGGUAUGGUAAUAAGCUGACGGACAUGGUCCUAACCACGCAGCCAAGUCCUAAGUCAACAGAUCUUCUGUUGAUAUGGAUGCAGUUCACAGACUAAAUGUCGGUCGGGGAAGAUGUAUUCUUCUCAUAAGAUAUAGUCGGACCUCUCCUUAAUGGGAGCUAGCGGAUGAAGUGAUGCAACACUGGAGCCGCUGGGAACUAAUUUGUAUGCGAAAGUAUAUUGAUUAGUUUUGGAGUACUCGUGGUCG
The essentials: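 Pooled colonies went to amplicon sequencing on an Illumina HiSeq 2500 after six replicate transformations. The plates were LB agar with 100 μg/mL carbenicillin, 50 μM IPTG and 0.2% rhamnose, with or without 25 μg/mL kanamycin, incubated overnight at 37°C or 30°C. The E. coli BL21(DE3) library had all eight P1ex-region intron nucleotides randomised, the intron placed in the knt kanamycin-resistance gene on pET-22b(+). DiMSum fitness is the error-weighted combination of replicate fold changes, kanamycin against none, normalised to wild type.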

With UACCAGCAAUAUUACGAUCU, the “self-splicing fitness (ln)” value (30 °C) is -1.77 ± 0.13 and the “self-splicing fitness (ln)” value (37 °C) is -1.08 ± 0.16. The corresponding values for CACCAGCAAUAUUACGAGCU are -3.87 ± 0.16 and -3.55 ± 0.27. Taken in the same sequence, the figures for CGCAAGCAAUAUUACGAAAC were -3.46 ± 0.37 and -0.979 ± 0.12. As to GCGCAGCAAUAUUACGCAUC, the “self-splicing fitness (ln)” value was -0.685 ± 0.092 (30 °C) and -0.339 ± 0.098 (37 °C). Taken in the same sequence, the figures for CGAAAGCAAUAUUACGGCGU were -0.379 ± 0.074 and 0.313 ± 0.11. On to AAAAAGCAAUAUUACGCAUA, for which the “self-splicing fitness (ln)” value (30 °C) was -1.5 ± 0.11 and the “self-splicing fitness (ln)” value (37 °C) was -0.715 ± 0.1. For GUCUAGCAAUAUUACGACCG, the “self-splicing fitness (ln)” value reads like this: (30 °C) -1.42 ± 0.4; (37 °C) -2.17 ± 0.33. Taken in the same sequence, the figures for CAAAAGCAAUAUUACGCAUC were -3.35 ± 0.11 and -1.52 ± 0.12. In the case of GGCAAGCAAUAUUACGUCAC, the “self-splicing fitness (ln)” value is, setting by setting: (30 °C) -3.31 ± 0.22; (37 °C) -0.36 ± 0.17. For GGGAAGCAAUAUUACGGGUC, the “self-splicing fitness (ln)” value (30 °C) is -2.67 ± 0.3 and the “self-splicing fitness (ln)” value (37 °C) is -2.08 ± 0.33. For GUGGAGCAAUAUUACGCGAA, the “self-splicing fitness (ln)” value reads like this: (30 °C) -3 ± 0.39; (37 °C) -1.09 ± 0.27. Taken in the same sequence, the figures for CAGGAGCAAUAUUACGGUGA were -2.96 ± 0.22 and -3 ± 0.27. Consider GCCUAGCAAUAUUACGUAGG, for which the “self-splicing fitness (ln)” value is, setting by setting: (30 °C) -3.69 ± 0.18; (37 °C) -2.93 ± 0.25.

Regarding UGAGAGCAAUAUUACGCAAC, the “self-splicing fitness (ln)” value (37 °C) was -1.88 ± 0.47.

On to UCAAAGCAAUAUUACGCAGA, for which the “self-splicing fitness (ln)” value runs as follows: (30 °C) -3.13 ± 0.21; (37 °C) -2.64 ± 0.16. Taken in the same sequence, the figures for GUACAGCAAUAUUACGACAU were -0.299 ± 0.012 and 0.127 ± 0.032. The corresponding values for GUAAAGCAAUAUUACGGCGU are -0.369 ± 0.069 and 0.409 ± 0.11.

For the sequence UAGUAGCAAUAUUACGUGUC, the “self-splicing fitness (ln)” value (37 °C) was -2.22 ± 0.34. Turning to CUACAGCAAUAUUACGAGUG, the “self-splicing fitness (ln)” value is, setting by setting: (30 °C) -0.714 ± 0.047; (37 °C) -0.418 ± 0.068. The corresponding values for UCUUAGCAAUAUUACGCGCG are -3.05 ± 0.25 and -1.76 ± 0.17. The corresponding values for UGGAAGCAAUAUUACGGCGU are -1.16 ± 0.13 and 0.0292 ± 0.12.

For ACCCAGCAAUAUUACGAAUG, the “self-splicing fitness (ln)” value is -3.41 ± 0.13 (30 °C) and -1.2 ± 0.13 (37 °C). With AAAGAGCAAUAUUACGGAGC, for the setting “30 °C”, the “self-splicing fitness (ln)” value is -2.8 ± 0.39. Consider CAAUAGCAAUAUUACGUCGC, for which the “self-splicing fitness (ln)” value was -4.1 ± 0.36 (30 °C) and -2.56 ± 0.29 (37 °C). In the case of CACGAGCAAUAUUACGUCUU, the “self-splicing fitness (ln)” value was -2.89 ± 0.22 (30 °C) and -2.82 ± 0.24 (37 °C). The corresponding values for CGGCAGCAAUAUUACGCUGU are -3.8 ± 0.14 and -2.29 ± 0.15. The corresponding values for CGGUAGCAAUAUUACGGCUU are -0.935 ± 0.087 and 0.239 ± 0.12.

In the case of ACCAAGCAAUAUUACGUCUU, the “self-splicing fitness (ln)” value (30 °C) was -4.21 ± 0.14 and the “self-splicing fitness (ln)” value (37 °C) is -2.59 ± 0.12. The corresponding values for AUGAAGCAAUAUUACGUGCA are -0.0826 ± 0.093 and 0.364 ± 0.11. For CUACAGCAAUAUUACGGAAC, the “self-splicing fitness (ln)” value is, setting by setting: (30 °C) -4.6 ± 0.34; (37 °C) -3.47 ± 0.35. As for CUUAAGCAAUAUUACGUUUG, the “self-splicing fitness (ln)” value by setting is: (30 °C) -3.89 ± 0.2; (37 °C) -2.73 ± 0.3. UAUCAGCAAUAUUACGGUCU: the “self-splicing fitness (ln)” value by setting is: (30 °C) -0.719 ± 0.092; (37 °C) -0.878 ± 0.11. Taken in the same sequence, the figures for CCCCAGCAAUAUUACGAUGU were -4.53 ± 0.2 and -3.11 ± 0.17. Taken in the same sequence, the figures for UCACAGCAAUAUUACGAAUG were -1.77 ± 0.097 and -1.61 ± 0.14. Taken in the same sequence, the figures for UGGAAGCAAUAUUACGUCUU were -0.99 ± 0.11 and -0.129 ± 0.13. On to AGGUAGCAAUAUUACGACUA, for which the “self-splicing fitness (ln)” value (30 °C) is -0.0242 ± 0.016 and the “self-splicing fitness (ln)” value (37 °C) is 0.141 ± 0.034. Taken in the same sequence, the figures for UCGCAGCAAUAUUACGUAUC were -3.82 ± 0.37 and -2.15 ± 0.27. CUCGAGCAAUAUUACGCCUG: the “self-splicing fitness (ln)” value (30 °C) was -3.03 ± 0.24 and the “self-splicing fitness (ln)” value (37 °C) is -2.58 ± 0.49.
